Assay results: patent publication US20030032587A1, “Urocortin peptides” (The Salk Institute for Biological Studies, priority 1995, published 2003)
Read-outs that look alike come from different tables or passages of the source. Where no end group is shown, it is not given here. [ ]: non-standard residue; d: D form.

Columns and labels:
[1] = target: human CRF-R2β, stably transfected CHO cells (human) (UniProt Q13324); test: competitive displacement of [125I-Tyr0]Ucn from stably transfected CHO cells expressing human CRF-R2β; 95% confidence limits in brackets
human CRF-R2β = test: competitive displacement binding assay, CRF-R2β stably expressed in CHO cells; conditions: read-out: Ki (95% confidence limits); CRF-R2β in stably transfected CHO cells; displacement of [125I-Tyr0]Ucn
Experimental: Binding assays with cells expressing human CRF-R1 are carried out as described in the Chen et al. P.N.A.S., supra. The affinities of test peptides for CRF-R1 and CRF-R2β stably expressed in CHO cells were determined by competitive displacement of ^125I-(Nle^21, Tyr^32) ovine CRF (for CRF-R1) or of [^125II-Tyr^∘]Ucn (for CRF-R2β) as described.

murine CRF-R2β = target: T1, murine CRF-R2β (Mus musculus, UniProt Q60748); test: elevation of intracellular cAMP in cells expressing mCRF-R2β; assay type: cell-based; conditions: read-out: ED50, elevation of cAMP
T1 construct: expressed in transfected cells
T1 sequence (Q60748 1-431 isoform Q60748-2): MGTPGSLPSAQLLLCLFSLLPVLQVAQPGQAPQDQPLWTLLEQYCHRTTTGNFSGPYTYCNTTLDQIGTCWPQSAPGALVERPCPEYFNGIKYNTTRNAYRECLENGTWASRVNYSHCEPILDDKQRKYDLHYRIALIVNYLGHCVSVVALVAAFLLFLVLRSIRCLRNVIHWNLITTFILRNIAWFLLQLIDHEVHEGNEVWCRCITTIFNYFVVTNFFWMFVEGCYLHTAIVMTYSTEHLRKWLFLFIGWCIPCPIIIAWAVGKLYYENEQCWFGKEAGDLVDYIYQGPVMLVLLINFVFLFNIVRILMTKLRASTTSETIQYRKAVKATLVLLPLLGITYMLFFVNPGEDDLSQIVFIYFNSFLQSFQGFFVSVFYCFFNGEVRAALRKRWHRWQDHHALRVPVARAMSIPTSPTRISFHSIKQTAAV
Excerpt: CRF-R is used to refer to a family of receptor protein subtypes which participate in the G-protein-coupled response of cells to CRF and Ucn-like ligands. CRF-Rs are coupled by heterotrimeric G-proteins to various intracellular enzymes, ion channels, and transporters. The G-proteins associate with the receptor proteins at the intracellular face of the plasma membrane. An agonist binding to a CRF-R catalyzes the exchanges of GTP for GDP on the α-subunit (G-protein “activation”), resulting in its dissociation and stimulation of one (or more) of the various signal-transducing enzymes and channels. G-protein preferentially stimulates particular effectors, and the specificity of signal transduction may be determined, therefore, by the specificity of G-protein/receptor interaction. CRF-R proteins mediate signal transduction through the modulation of adenylate cyclase and perhaps through PI turnover. For example, when CRF or Ucn binds to and activates the CRF-R, adenylate cyclase causes an elevation in the level of intracellular cAMP. […] Such transformed cells are monitored for either an increase or decrease in the level of intracellular CAMP which provides a determination of the effectiveness of the potential agonist or antagonist. Methods for measuring intracellular levels of cAMP, or measuring cyclase activity, are well known in the art.

[2] = tested on: primary murine anterior pituitary cells; assay type: cell-based; conditions: cultured rodent pituitary cells, read-out: EC50, secretion of ACTH
Excerpt: A straightforward assay using rat anterior pituitary cells in monolayer culture can be carried out to determine whether a candidate peptide thereof will function as a CRF agonist and stimulate ACTH secretion by activating CRF receptors on such cells. The procedure which is used is that generally set forth in Endocrinology, 91, supra. A very similar assay is used to test for antagonistic properties, using a challenge dose of oCRF or the like.
To test the ability of purified Ucn or another candidate Ucn-like peptide to function as a CRF agonist and to promote ACTH production and/or secretion, cultures of dispersed primary murine anterior pituitary cells (0.15×10^6 cells/well are used), as generally described in Vale et al. Meth. Enzym., 103, 565-577 (1983), and in Endocrinology, 91, 562 (1972). These cultures are maintained in 0.5 ml/well of β-PJ (a reagent available from Kansas City Biochemicals) containing 2% fetal bovine serum. On the morning of culture day 5, the cells are washed 3 times with β-PJ containing 0.1% bovine serum albumin and then incubated for 1 hour at 37° C. in the same medium. The medium is then replaced with Ucn, or an analog thereof, diluted in β-PJ containing 0.1% bovine serum albumin. Incubations are terminated after 3 hours, at which time the medium is removed and stored at −20° C. until ACTH radioimmunoassays are performed using a suitable kit, such as that commercially available from Diagnostic Products Corporation of Los Angeles, Calif. Secreted ACTH is measured using Allfit computer program with results expressed as the average±s.e.m. of 3 replicate bioassays.

rats = test: ACTH secretion in vivo, ACTH level in plasma; conditions: 5 μg/kg dose, at 30 minutes
[3] = target: CRF receptors on anterior pituitary cells in culture; test: cell-based or functional assay
[4] = target: T2, human CRF binding protein (human, UniProt P24387 25-322); test: competitive hCRF-BP ligand binding assay with [125I-DTyr0]hCRF
T2 construct: also called hCRF-BP; CRF-BP
T2 sequence (looked up): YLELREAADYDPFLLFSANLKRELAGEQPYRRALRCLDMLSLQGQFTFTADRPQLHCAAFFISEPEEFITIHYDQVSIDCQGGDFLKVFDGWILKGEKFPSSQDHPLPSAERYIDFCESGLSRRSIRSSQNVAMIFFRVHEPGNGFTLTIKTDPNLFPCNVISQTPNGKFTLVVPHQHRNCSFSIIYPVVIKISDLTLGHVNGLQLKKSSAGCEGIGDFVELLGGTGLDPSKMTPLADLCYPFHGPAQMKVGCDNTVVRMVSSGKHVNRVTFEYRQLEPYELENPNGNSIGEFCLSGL
Experimental: After incubating with the primary and secondary antisera for 30 minutes each, 1 ml of saline wash is added, and the test tubes are centrifuged at 2000× g for 20 minutes at 4° C. Precipitates are counted in a gamma counter. Inhibitory binding affinity constant (Kᵢ) values are determined using parameters calculated by the LIGAND computer program, Munson et al., Anal. Biochem., 107, 220 (1980), and a Vax/VMS computer system.

[5] = target: T2, human CRF binding protein; test: competitive hCRF-BP ligand binding assay with 125I[Nle21,Tyr32]-oCRF

Molecule: rat urocortin (rat Ucn) (peptide)
- Ki [1]: 410 pM

Molecule: H-NDDPPISIDLTFHLLRNMIEMARIENEREQAGLNRKYLDEV-NH2 [sfUI, reference compound]
- Ki (human CRF-R2β): 3000 pM
- EC50 (murine CRF-R2β): 740 pM
- EC50 ([2]; no unit printed for this value): 17 ± 3 pM

Molecule: CC[C@H](C)[C@H](NC(=O)[C@@H](NC(=O)[C@H](CC(=O)O)NC(=O)[C@H](CC(C)C)NC(=O)[C@H](CC(C)C)NC(=O)[C@H](CC(C)C)NC(=O)[C@H](CCCNC(=N)N)NC(=O)[C@H](CC(N)=O)NC(=O)[C@H](CC(N)=O)NC(=O)[C@H](C)NC(=O)[C@H](C)NC(=O)[C@H](CCC(N)=O)NC(=O)[C@H](CCC(N)=O)NC(=O)[C@H](CCCCN)NC(=O)[C@H](CCC(=O)O)NC(=O)[C@H](CCCCN)NC(=O)[C@H](CCC(=O)O)NC(=O)[C@H](CCC(N)=O)NC(=O)[C@H](CCCCN)NC(=O)[C@H](CCC(=O)O)NC(=O)[C@@H](NC(=O)[C@H](CCC(=O)O)NC(=O)[C@@H](NC(=O)[C@H](CCSC)NC(=O)[C@H](CCCCN)NC(=O)[C@H](CCCNC(=N)N)NC(=O)[C@H](CC(C)C)NC(=O)[C@H](CC(C)C)NC(=O)[C@H](CCC(=O)O)NC(=O)[C@H](CC(C)C)NC(=O)[C@H](CO)NC(=O)[C@H](CC(C)C)NC(=O)[C@H](CC(=O)O)NC(=O)[C@@H](NC(=O)[C@H](CO)NC(=O)[C@@H](NC(=O)[C@@H]1CCCN1C(=O)[C@@H]1CCCN1C(=O)CNC(=O)[C@@H]1CCC(=O)N1)[C@@H](C)CC)[C@@H](C)CC)[C@@H](C)CC)[C@@H](C)CC)[C@@H](C)O)C(N)=O [sauvagine, reference compound]
- Ki (human CRF-R2β): 2000 pM
- EC50 ([2]; incubation 3 hours, average±s.e.m.): ~33 pM

Molecule: CC[C@H](C)[C@H](NC(=O)[C@@H](NC(=O)[C@H](CCC(=O)O)NC(=O)[C@H](CCSC)NC(=O)[C@H](CC(C)C)NC(=O)[C@H](CCCCN)NC(=O)[C@H](CCCNC(=N)N)NC(=O)[C@H](CC(N)=O)NC(=O)[C@H](CO)NC(=O)[C@H](Cc1c[nH]cn1)NC(=O)[C@H](C)NC(=O)[C@H](CCC(N)=O)NC(=O)[C@H](CCC(N)=O)NC(=O)[C@H](C)NC(=O)[C@H](CC(C)C)NC(=O)[C@H](CCC(N)=O)NC(=O)[C@H](CCC(=O)O)NC(=O)[C@H](C)NC(=O)[C@H](CCCNC(=N)N)NC(=O)[C@H](C)NC(=O)[C@H](CCSC)NC(=O)[C@H](CCC(=O)O)NC(=O)[C@H](CC(C)C)NC(=O)[C@@H](NC(=O)[C@H](CCC(=O)O)NC(=O)[C@H](CCCNC(=N)N)NC(=O)[C@H](CC(C)C)NC(=O)[C@H](CC(C)C)NC(=O)[C@H](Cc1c[nH]cn1)NC(=O)[C@H](Cc1ccccc1)NC(=O)[C@@H](NC(=O)[C@H](CC(C)C)NC(=O)[C@H](CC(=O)O)NC(=O)[C@H](CC(C)C)NC(=O)[C@H](CO)NC(=O)[C@@H](NC(=O)[C@@H]1CCCN1C(=O)[C@@H]1CCCN1C(=O)[C@H](CCC(=O)O)NC(=O)[C@H](CCC(=O)O)NC(=O)[C@@H](N)CO)[C@@H](C)CC)[C@@H](C)O)C(C)C)[C@@H](C)CC)C(N)=O [r/hCRF, reference compound]
- ACTH level in plasma (rats): 422 ± 66 pg/mL

B1: [D-Phe11]-Ucn(11-40) (peptide)
peptide: [dF]HLLRTLLELARTQSQRERAEQNRIIFDSV-NH2
modifications: N-terminus assumed
SMILES: CC[C@H](C)[C@H](NC(=O)[C@H](CCCNC(=N)N)NC(=O)[C@H](CC(N)=O)NC(=O)[C@H](CCC(N)=O)NC(=O)[C@H](CCC(=O)O)NC(=O)[C@H](C)NC(=O)[C@H](CCCNC(=N)N)NC(=O)[C@H](CCC(=O)O)NC(=O)[C@H](CCCNC(=N)N)NC(=O)[C@H](CCC(N)=O)NC(=O)[C@H](CO)NC(=O)[C@H](CCC(N)=O)NC(=O)[C@@H](NC(=O)[C@H](CCCNC(=N)N)NC(=O)[C@H](C)NC(=O)[C@H](CC(C)C)NC(=O)[C@H](CCC(=O)O)NC(=O)[C@H](CC(C)C)NC(=O)[C@H](CC(C)C)NC(=O)[C@@H](NC(=O)[C@H](CCCNC(=N)N)NC(=O)[C@H](CC(C)C)NC(=O)[C@H](CC(C)C)NC(=O)[C@H](Cc1c[nH]cn1)NC(=O)[C@H](N)Cc1ccccc1)[C@@H](C)O)[C@@H](C)O)C(=O)N[C@H](C(=O)N[C@@H](Cc1ccccc1)C(=O)N[C@@H](CC(=O)O)C(=O)N[C@@H](CO)C(=O)N[C@H](C(N)=O)C(C)C)[C@@H](C)CC
- antagonism of ACTH secretion under a challenge dose of ovine CRF, potency relative to the Standard Antagonist [D-Phe12, Nle21,38]-r/hCRF(12-41) (times Standard Antagonist) [3]: 0.551

B2: Ucn(5-32) (peptide)
peptide: LSIDLTFHLLRTLLELARTQSQRERAEQ
notes: Printed without NH2 at the C-terminus
- binding result [4]: binds

B3: [Ile18]-Ucn(6-29) (peptide)
peptide: SIDLTFHLLRTLIELARTQSQRER
notes: as for B2
- binding result [4]: binds

B4: Ucn(8-32) (peptide)
peptide: DLTFHLLRTLLELARTQSQRERAEQ
notes: as for B2
- binding result [4]: binds

B5: rat urocortin (rat Ucn) (peptide)
peptide: DDPPLSIDLTFHLLRTLLELARTQSQRERAEQNRIIFDSV-NH2
- EC50, secretion of ACTH in cultured rodent pituitary cells [3]: 6 pM

B6: rat/human CRF (peptide)
peptide: SEEPPISLDLTFHLLREVLEMARAEQLAQQAHSNRKLMEII-NH2
notes: also called r/hCRF; rCRF
- EC50, secretion of ACTH in cultured rodent pituitary cells [3]: 43 pM
- binding result [5]: binds

B7: Ucn(3-27) (peptide)
peptide: PPLSIDLTFHLLRTLLELARTQSQR
notes: Printed without NH2
- binding result [4]: binds
